Assay results as given in the Human Domainome abundance scans (Beltran et al. 2025).
± gives the uncertainty stated by the source.

B1: Peripheral plasma membrane protein CASK, residues 488 to 569; numbered along this chain, O14936 (parent)
chain: VRLVQFQKNTDEPMGITLKMNELNHCIVARIMHGGMIHRQGTLHVGDEIREINGISVANQTVEQLQKMLREMRGSITFKIVP
B2: Far upstream element-binding protein 1, residues 184 to 257; numbered along this chain, Q96AE4 (parent)
chain: GNAVQEIMIPASKAGLVIGKGGETIKQLQERAGVKMVMIQDGPQNTGADKPLRITGDPYKVQQAKEMVLELIRD

Variants of: B1
Assay: abundance fitness (aPCA) (normalised: wild type 0, dead -1); higher = more abundant; growth selection in yeast, the domain comes from the species named
Conditions: Homo sapiens

Abundance fitness: each site, then its substitutions
K79: T -0.06 ± 0.031, E -0.113 ± 0.066, Q -0.016 ± 0.037, I -0.406 ± 0.055, G -0.044 ± 0.045, W -0.572 ± 0.084, C -0.053 ± 0.054, L -0.09 ± 0.029, R -0.061 ± 0.032, Y -0.415 ± 0.054, H -0.006 ± 0.039, A 0.071 ± 0.044, D -0.27 ± 0.071, S 0.014 ± 0.033, M -0.133 ± 0.044, P -1.14 ± 0.16, N -0.091 ± 0.05, F -0.457 ± 0.056, V -0.213 ± 0.048
K67: I -0.06 ± 0.051, T 0.001 ± 0.032, S -0.038 ± 0.029, V 0.002 ± 0.026, N 0.003 ± 0.057, P -0.292 ± 0.04, Q -0.054 ± 0.042, H 0.029 ± 0.057, M -0.029 ± 0.034, G -0.014 ± 0.024, Y -0.064 ± 0.047, W -0.119 ± 0.032
T77: Y -0.112 ± 0.078, W -0.014 ± 0.048, Q -0.04 ± 0.039, M -0.309 ± 0.22, R -0.088 ± 0.035, H -0.194 ± 0.055, D -0.061 ± 0.065, V -0.103 ± 0.046, E -0.034 ± 0.059, G -0.248 ± 0.047, I -0.026 ± 0.069, N -0.096 ± 0.065, S -0.002 ± 0.035, K -0.041 ± 0.057, F -0.019 ± 0.059, A -0.028 ± 0.039, C -0.058 ± 0.051, L -0.064 ± 0.035
V81: Q -0.001 ± 0.048, F -0.02 ± 0.038, N -0.118 ± 0.046, Y -0.035 ± 0.038, P -0.658 ± 0.08, A -0.054 ± 0.034, I -0.016 ± 0.039, L 0.005 ± 0.027, E -0.104 ± 0.046, W -0.102 ± 0.046, M -0.05 ± 0.038, S -0.044 ± 0.032, C -0.036 ± 0.048, G -0.106 ± 0.041, H -0.073 ± 0.041, T -0.075 ± 0.034
R73: S 0.025 ± 0.025, A -0.082 ± 0.025, I -0.04 ± 0.046, D -0.002 ± 0.041, K 0.007 ± 0.033, L -0.113 ± 0.026, V -0.038 ± 0.024, F -0.124 ± 0.059, C -0.011 ± 0.038, N 0.038 ± 0.058, Y -0.157 ± 0.11, T -0.003 ± 0.031, G -0.022 ± 0.021, E -0.02 ± 0.027, H -0.044 ± 0.055, Q -0.006 ± 0.031, P -0.357 ± 0.041, W -0.117 ± 0.027, M -0.077 ± 0.032
F78: D -1.22 ± 0.36, S -0.839 ± 0.065, Q -1.22 ± 0.42, P -0.998 ± 0.12, L -0.007 ± 0.027, I -0.045 ± 0.038, G -0.886 ± 0.1, K -0.964 ± 0.15, T -0.677 ± 0.066, H -0.95 ± 0.16, R -0.812 ± 0.071, N -0.922 ± 0.16, W -0.484 ± 0.074, C -0.233 ± 0.052, M 0.052 ± 0.1, V -0.198 ± 0.035, A -0.473 ± 0.047, Y -0.524 ± 0.064
P82: C -0.072 ± 0.093, Q 0.02 ± 0.073, K -0.143 ± 0.092, S -0.021 ± 0.035, L -0.214 ± 0.053, G -0.083 ± 0.067, H -0.151 ± 0.097, W -0.359 ± 0.091, E -0.047 ± 0.076, A -0.016 ± 0.046, M -0.204 ± 0.077, N -0.048 ± 0.084, T -0.042 ± 0.049, Y -0.45 ± 0.17, R -0.063 ± 0.044, D -0.039 ± 0.07, V -0.089 ± 0.056, I -0.237 ± 0.27
R70: I -0.078 ± 0.038, D 0.038 ± 0.035, C -0.029 ± 0.03, P -0.229 ± 0.031, L 0 ± 0.024, A 0.012 ± 0.024, H 0.02 ± 0.04, Q -0.023 ± 0.031, M -0.019 ± 0.031, S -0.015 ± 0.023, V -0.018 ± 0.023, E 0.016 ± 0.028, N -0.024 ± 0.041, T -0.02 ± 0.03, K -0.02 ± 0.031, Y -0.039 ± 0.049, G 0.006 ± 0.022, F 0.002 ± 0.042
M72: F 0.039 ± 0.038, A 0.022 ± 0.024, N -0.114 ± 0.046, R -0.14 ± 0.021, Y -0.055 ± 0.041, W -0.047 ± 0.024, H -0.009 ± 0.046, E -0.085 ± 0.028, I 0.036 ± 0.042, C 0.005 ± 0.03, D -0.182 ± 0.034, P -0.244 ± 0.045, S 0.007 ± 0.026, Q -0.05 ± 0.03, K -0.072 ± 0.032, G -0.077 ± 0.02, V -0.008 ± 0.023, T -0.022 ± 0.031
L69: M -0.029 ± 0.033, N -0.609 ± 0.086, T -0.097 ± 0.027, V -0.038 ± 0.027, Y -0.357 ± 0.06, R -1 ± 0.049, K -0.9 ± 0.074, F -0.101 ± 0.048, I -0.08 ± 0.055, E -0.537 ± 0.058, W -0.308 ± 0.029, D -0.73 ± 0.073, P -0.944 ± 0.086, Q -0.594 ± 0.045, A -0.355 ± 0.026, G -0.443 ± 0.027, H -0.777 ± 0.097, C -0.093 ± 0.035
I76: R -1.06 ± 0.065, G -0.157 ± 0.023, M -0.082 ± 0.049, T -0.269 ± 0.04, F -0.173 ± 0.054, S -0.448 ± 0.037, V -0.01 ± 0.024, Y -0.339 ± 0.074, H -0.544 ± 0.1, K -1.11 ± 0.13, C -0.028 ± 0.039, N -0.186 ± 0.051, A -0.308 ± 0.033, W -0.236 ± 0.032, P -0.647 ± 0.094, L -0.112 ± 0.028, D -0.818 ± 0.1, E -1.04 ± 0.098
I80: Q -0.894 ± 0.13, L -0.113 ± 0.028, P -0.921 ± 0.08, F -0.098 ± 0.043, V 0.012 ± 0.037, G -0.408 ± 0.071, C -0.074 ± 0.052, M -0.169 ± 0.046, W -0.383 ± 0.081, A -0.468 ± 0.053, S -0.424 ± 0.038, N -0.836 ± 0.14, Y -0.188 ± 0.06, R -0.795 ± 0.081, K -0.802 ± 0.15, H -0.623 ± 0.073, T -0.142 ± 0.038, D -1.32 ± 0.44, E -0.883 ± 0.21
M68: I -0.068 ± 0.053, V -0.026 ± 0.024, N -0.012 ± 0.051, D 0.054 ± 0.04, Y -0.045 ± 0.051, G -0.048 ± 0.024, E -0.038 ± 0.029, W -0.049 ± 0.025, R 0.002 ± 0.021, L -0.032 ± 0.024, P -0.647 ± 0.06, T -0.039 ± 0.03, A -0.02 ± 0.025, S -0.004 ± 0.026, K 0 ± 0.031, Q -0.014 ± 0.033, C -0.026 ± 0.033, H -0.019 ± 0.04, F -0.028 ± 0.058
S75: W -0.04 ± 0.031, R -0.011 ± 0.023, C -0.011 ± 0.036, Q 0.019 ± 0.034, G 0.001 ± 0.021, A 0.04 ± 0.027, H -0.047 ± 0.053, M -0.081 ± 0.041, I -0.116 ± 0.046, E -0.029 ± 0.03, L 0.034 ± 0.03, V 0.011 ± 0.025, N -0.023 ± 0.047, P -0.005 ± 0.048, K 0.005 ± 0.033, T 0.023 ± 0.033, Y -0.116 ± 0.048, F -0.037 ± 0.043, D 0.033 ± 0.037
E71: L -0.074 ± 0.028, T -0.036 ± 0.034, M -0.053 ± 0.034, D 0.007 ± 0.046, A -0.03 ± 0.025, K 0.004 ± 0.037, Q -0.051 ± 0.035, F 0.013 ± 0.051, S -0.013 ± 0.029, H -0.002 ± 0.048, Y 0.017 ± 0.051, V -0.034 ± 0.025, I -0.036 ± 0.061, R -0.008 ± 0.022, C -0.022 ± 0.034, N -0.044 ± 0.063, G 0.006 ± 0.022
G74: M -0.806 ± 0.077, H -0.355 ± 0.061, N -0.243 ± 0.056, K -0.399 ± 0.042, C -0.5 ± 0.066, L -0.842 ± 0.044, I -1.13 ± 0.2, Y -0.521 ± 0.068, F -0.51 ± 0.078, S -0.381 ± 0.033, T -0.4 ± 0.04, R -0.467 ± 0.027, V -0.716 ± 0.036, P -0.524 ± 0.046, D -0.131 ± 0.043

Variants of: B2
Assay: as above
Conditions: Homo sapiens

Abundance fitness: each site, then its substitutions
G1: M 0.173 ± 0.068, Y -0.074 ± 0.067, D -0.067 ± 0.042, C -0.127 ± 0.053, L -0.042 ± 0.049, V 0.038 ± 0.034, E -0.061 ± 0.039, Q -0.26 ± 0.13, W -0.502 ± 0.056, A -0.075 ± 0.039, R -0.176 ± 0.038, P -0.212 ± 0.093, N -0.073 ± 0.076, I 0.193 ± 0.086, S -0.14 ± 0.045, K -0.044 ± 0.068, F -0.027 ± 0.074
N2: S 0.128 ± 0.031, V 0.121 ± 0.033, I 0.168 ± 0.047, D -0.224 ± 0.047, A 0.043 ± 0.033, R 0.032 ± 0.028, H -0.311 ± 0.058, Q 0.095 ± 0.04, C 0.052 ± 0.046, E 0.176 ± 0.037, P -0.028 ± 0.038, K 0.155 ± 0.034, M 0.201 ± 0.038, Y -0.124 ± 0.053, L 0.09 ± 0.033, T 0.154 ± 0.034, W -0.028 ± 0.036, F 0.043 ± 0.047
A3: W 0.116 ± 0.033, S 0.196 ± 0.032, Y 0.158 ± 0.057, I 0.255 ± 0.053, V 0.011 ± 0.032, M 0.256 ± 0.039, F 0.165 ± 0.053, R 0.17 ± 0.027, N 0.057 ± 0.053, K 0.181 ± 0.039, Q 0.133 ± 0.038, T 0.235 ± 0.037, E 0.039 ± 0.036, L 0.172 ± 0.031, G -0.059 ± 0.027, H -0.044 ± 0.05, P 0.109 ± 0.037
V4: A -0.259 ± 0.033
